{"source": "patent US6011020", "biological_target": "bFGF (basic fibroblast growth factor) (UniProt P09038)", "sequence (P09038 143-288)": "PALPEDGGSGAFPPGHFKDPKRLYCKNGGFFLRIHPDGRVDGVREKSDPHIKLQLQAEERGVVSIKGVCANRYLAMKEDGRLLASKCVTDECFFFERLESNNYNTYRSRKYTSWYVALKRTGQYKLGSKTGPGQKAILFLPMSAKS", "note": "Where two headings read alike, the source gives them in different places."}
{"sequence": "GGGCTTTGTAAAACCCCGC [225T3N-PEG-3400]", "values": [{"measurement": "Kd", "setting": "3'-amino-modifier C7 conjugated to PEG 3400 [3' end after position 19: NN = non-nucleotide 3'-amino-modifier C7 and PEG 3400, left out], binding assay with 5'-32P-labeled conjugate, assay type not stated", "value": 1, "unit": "nM"}]}
{"sequence": "GGGCTTTGTAAAACCCCGC [225t3-Chol]", "values": [{"measurement": "Kd", "setting": "3'-tetraethyleneglycol cholesterol, binding assay with 5'-32P-labeled conjugate, assay type not stated", "value": 1, "unit": "nM"}]}
{"sequence": "GGGCTTTGTAAAACCCCGC [225T3]", "values": [{"measurement": "Kd", "setting": "reference ligand, same affinity as PEG and cholesterol conjugates, binding assay type not stated", "value": 1, "unit": "nM"}]}
